{"source": "patent CN117460529A", "about": "(dated 2024)", "key": {"细胞表面上表达的人ICOS [1]": {"target": "T1, 细胞表面上表达的人ICOS (human, UniProt Q9Y6W8 21-199)", "T1 construct": "whole, on cells; also called hICOS; human ICOS on CHO-S cells", "T1 sequence (looked up)": "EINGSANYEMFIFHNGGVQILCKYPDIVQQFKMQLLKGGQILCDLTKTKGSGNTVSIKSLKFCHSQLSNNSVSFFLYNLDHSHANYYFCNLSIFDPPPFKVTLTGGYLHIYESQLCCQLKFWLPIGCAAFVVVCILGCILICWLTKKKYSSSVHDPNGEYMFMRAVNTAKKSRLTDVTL", "assay": "receptor occupancy on patients' CD4 memory T cells, chip cytometry"}, "CHO-S细胞表面上表达的小鼠ICOS [2]": {"target": "T2, CHO-S细胞表面上表达的小鼠ICOS (mouse, UniProt Q9WVS0 21-200)", "T2 construct": "whole, on cells; also called mICOS; mouse ICOS on CHO-S cells", "T2 sequence (looked up)": "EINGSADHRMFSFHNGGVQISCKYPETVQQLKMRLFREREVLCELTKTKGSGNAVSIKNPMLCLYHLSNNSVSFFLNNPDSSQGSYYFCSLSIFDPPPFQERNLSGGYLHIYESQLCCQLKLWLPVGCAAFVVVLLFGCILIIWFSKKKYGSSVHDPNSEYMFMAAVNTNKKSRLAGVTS", "assay": "flow cytometry on CHO-S cells expressing ICOS, purified IgG1"}, "细胞表面上表达的人ICOS [3]": {"target": "T1, 细胞表面上表达的人ICOS", "assay": "flow cytometry on CHO-S cells expressing ICOS, purified IgG1"}, "CHO-S细胞表面上表达的小鼠ICOS [4]": {"target": "T2, CHO-S细胞表面上表达的小鼠ICOS", "assay": "Mirrorball assay on CHO-S cells expressing ICOS; total binding defined by reference antibody, non-specific by hybrid control hIgG1"}, "细胞表面上表达的人ICOS [5]": {"target": "T1, 细胞表面上表达的人ICOS", "assay": "Mirrorball assay on CHO-S cells expressing ICOS; total binding defined by reference antibody, non-specific by hybrid control hIgG1"}, "小鼠ICOS (HTRF测定)": {"target": "T3, 小鼠ICOS (HTRF测定) (mouse, UniProt Q9WVS0 21-144, limits assumed)", "T3 construct": "the HTRF construct is described only in US 9,957,323; also called mouse ICOS; mICOS", "T3 sequence (looked up)": "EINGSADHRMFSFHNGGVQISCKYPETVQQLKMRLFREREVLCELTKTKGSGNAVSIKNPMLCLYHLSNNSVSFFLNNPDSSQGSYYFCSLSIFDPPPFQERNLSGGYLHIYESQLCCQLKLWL", "assay": "HTRF binding assay, HEK supernatant with human IgG1 antibody"}, "人ICOS (HTRF测定)": {"target": "T4, 人ICOS (HTRF测定) (human, UniProt Q9Y6W8 21-140, limits assumed)", "T4 construct": "the HTRF construct is described only in US 9,957,323; also called human ICOS; ICOS受体", "T4 sequence (looked up)": "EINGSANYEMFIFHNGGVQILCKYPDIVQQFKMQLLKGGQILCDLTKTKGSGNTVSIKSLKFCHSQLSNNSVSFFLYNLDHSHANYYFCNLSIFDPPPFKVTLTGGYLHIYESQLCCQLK", "assay": "HTRF binding assay, HEK supernatant with human IgG1 antibody"}}}
{"binder": "STIM003 (antibody, V domains shown, also called KY1044; SAR445256) VH: EVQLVESGGGVVRPGGSLRLSCVASGVTFDDYGMSWVRQAPGKGLEWVSGINWNGGDTDYSDSVKGRFTISRDNAKNSLYLQMNSLRAEDTALYYCARDFYGSGSYYHVPFDYWGQGILVTVSS VL: EIVLTQSPGTLSLSPGERATLSCRASQSVSRSYLAWYQQKRGQAPRLLIYGASSRATGIPDRFSGDGSGTDFTLSISRLEPEDFAVYYCHQYDMSPFTFGPGTKVDIKR", "values": [{"measurement": "binding result", "setting": "细胞表面上表达的人ICOS [1]", "value": "binds"}]}
{"binder": "CL-74570 (antibody, V domains shown) VH: EVQLVESGGGVIRPGGSLRLSCAASGFTFDDYGMSWVRQAPGKGLEWVSGINWIGDNTDYADSVKGRFTISRDNAKNSLYLQMNSLRAEDTALYYCARDYFGSGSYYNVPF VL: not shown", "values": [{"measurement": "fold over negative control (几何平均值)", "setting": "CHO-S细胞表面上表达的小鼠ICOS [2]", "value": "> 10 倍"}, {"measurement": "fold over negative control (几何平均值)", "setting": "细胞表面上表达的人ICOS [3]", "value": "> 10 倍"}, {"measurement": "作用 (% effect)", "setting": "CHO-S细胞表面上表达的小鼠ICOS [4]", "value": "> 1", "unit": "%"}, {"measurement": "作用 (% effect)", "setting": "细胞表面上表达的人ICOS [5]", "value": "> 1", "unit": "%"}, {"measurement": "作用 (% effect, 等式1)", "setting": "小鼠ICOS (HTRF测定)", "value": "> 5", "unit": "%"}, {"measurement": "作用 (% effect, 等式1)", "setting": "人ICOS (HTRF测定)", "value": "> 5", "unit": "%"}]}
{"binder": "CL-61091 (antibody, V domains shown) VH: QVQLMQSGTEVKKPGASVKVSCKTSGYTFTTYGITWVRQAPGQGLEWMGWISAYSGDTDYAQKFQGRVTVTTDTSTNTAYMELRSLKSDDTAVYYCARSSGWPHHYGMDVWGQGTTVTVSS VL: DIVMTQSPLSLPVTPGEPASISCRSSQSLLHSNGFNYFDWYLQKPGQSPQLLIFLVSNRASGVPDRFSGSGSGTDFTLKISRVEAEDVGIYYCMQALQTPLTFGGGTKVEIK", "values": [{"measurement": "fold over negative control (几何平均值)", "setting": "CHO-S细胞表面上表达的小鼠ICOS [2]", "value": "> 10 倍"}, {"measurement": "fold over negative control (几何平均值)", "setting": "细胞表面上表达的人ICOS [3]", "value": "> 10 倍"}, {"measurement": "作用 (% effect)", "setting": "CHO-S细胞表面上表达的小鼠ICOS [4]", "value": "> 1", "unit": "%"}, {"measurement": "作用 (% effect)", "setting": "细胞表面上表达的人ICOS [5]", "value": "> 1", "unit": "%"}, {"measurement": "作用 (% effect, 等式1)", "setting": "小鼠ICOS (HTRF测定)", "value": "> 5", "unit": "%"}, {"measurement": "作用 (% effect, 等式1)", "setting": "人ICOS (HTRF测定)", "value": "> 5", "unit": "%"}]}
